What all share (assay): cell-based or functional assay
For assay [1], the target named is HIV-1 envelope (Env) of virus CAP45.2.00.G3 (HIV-1).
Assay [2] has as its target HIV-1 envelope (Env) of virus REJO4541.67 (HIV-1).
For assay [3], the target named is HIV-1 envelope (Env) of virus WITO4160.33 (HIV-1).
For assay [4], the target named is HIV-1 envelope (Env) of virus CNE20 (HIV-1).
Assay [5] deals with HIV-1 envelope (Env) of virus DU172.17 (HIV-1).
For assay [6], the target named is HIV-1 envelope (Env) of virus AC10.0.29 (HIV-1).

Numbering of substitutions follows the chain as printed.

B1: NVS49-L2A1 (antibody, V domains shown)
VH: HVQLVQSGGGVKKIGAAVRISCEVTGYKFMDQLINWVRQAPGQGLEWMGWMNPTYGQVNYSWRFEGRVTMTRDMDTETAFMELRGLRVDDTAVYYCARGPSGENYPFHYWGQGVRVVVSS
VL: ASALTQPASMSASPGQSVTISCSGTRHIISAWFQQYPGKPPKLIIFDDDKRPSGVPSRFSASRPGDTASLTISNVQPEDEATYICNTYEFFGGGTRLTVL
Consider B1, for which the “IC50 of viral neutralization (Env.IMC.LucR virus, TZM-BL reporter cells)” value (shortened to “IC50 of viral neutralization”) is 0.069 µg/mL in assay [1]; 0.022 µg/mL in assay [2]; 0.213 µg/mL in assay [3]; 0.05 µg/mL in assay [4]; 0.128 µg/mL in assay [5]; 0.306 µg/mL in assay [6].

B2: L2A1_H58NS (antibody, V domains shown)
VH: B1 VH with N59S
VL: B1 VL
As for B2, the “IC50 of viral neutralization” value in assay [1] was 0.04 µg/mL; in assay [2], 0.206 µg/mL; in assay [3], 0.182 µg/mL; in assay [4], above 50 µg/mL; in assay [5], 0.102 µg/mL; in assay [6] it was 0.091 µg/mL.

B3: L2A1_H60SN (antibody, V domains shown)
VH: B1 VH with S61N
VL: B1 VL
With B3, the “IC50 of viral neutralization” value worked out at 0.032 µg/mL in assay [1]; 0.121 µg/mL in assay [2]; 0.212 µg/mL in assay [3]; 0.317 µg/mL in assay [4]; 0.044 µg/mL in assay [5]; 0.087 µg/mL in assay [6].

B4: L2A1_H58NQ (antibody, V domains shown)
VH: B1 VH with N59Q
VL: B1 VL
Consider B4, for which the “IC50 of viral neutralization” value in assay [2] was 0.025 µg/mL; in assay [3], 0.222 µg/mL; in assay [4] it was above 50 µg/mL; in assay [5], 2.27 µg/mL; in assay [6], above 50 µg/mL.

B5: L2A1_H60SA (antibody, V domains shown)
VH: B1 VH with S61A
VL: B1 VL
For the molecule B5, the “IC50 of viral neutralization” value in assay [1] is 0.039 µg/mL; in assay [2] it was 0.105 µg/mL; in assay [3] it was 0.148 µg/mL; in assay [4], 0.17 µg/mL; in assay [5], 0.056 µg/mL; in assay [6], 0.072 µg/mL.

B6: L2A1_H58ND (antibody, V domains shown)
VH: B1 VH with N59D
VL: B1 VL
B6: the “IC50 of viral neutralization” value in assay [2] is 0.212 µg/mL; in assay [3] it was 0.65 µg/mL; in assay [4], above 50 µg/mL; in assay [5], 20.9 µg/mL; in assay [6], above 50 µg/mL.

B7: L2A1_H58NA (antibody, V domains shown)
VH: B1 VH with N59A
VL: B1 VL
Consider B7, for which the “IC50 of viral neutralization” value in assay [1] is 0.05 µg/mL; in assay [2] it was 0.104 µg/mL; in assay [3], 0.259 µg/mL; in assay [4] it was above 50 µg/mL; in assay [5], 0.218 µg/mL; in assay [6], 0.098 µg/mL.

Values taken from patent US20210040185A1 (ATRECA, published 2021).
